Here are results for two molecules from patent US20180282719A1 (published 2018).

For assay [1], the target named is T1, recombinant soluble human IL-6 receptor (SR344) (human, UniProt P08887 20-344, biotinylated (sites not given) where immobilized via streptavidin or used in phage ELISA).
T1 construct: also called soluble IL-6 receptor; membrane-type IL-6 receptor (when biotinylated and immobilized on the chip)
T1 sequence (looked up): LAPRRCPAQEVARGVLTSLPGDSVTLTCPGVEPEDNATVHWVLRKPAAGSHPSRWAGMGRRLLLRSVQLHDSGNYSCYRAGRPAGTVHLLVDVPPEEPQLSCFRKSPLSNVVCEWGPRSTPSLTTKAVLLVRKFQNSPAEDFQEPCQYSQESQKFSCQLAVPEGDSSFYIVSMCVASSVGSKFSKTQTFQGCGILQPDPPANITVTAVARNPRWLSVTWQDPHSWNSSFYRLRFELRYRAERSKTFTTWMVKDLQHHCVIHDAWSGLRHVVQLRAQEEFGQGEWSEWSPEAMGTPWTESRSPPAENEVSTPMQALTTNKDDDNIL
The assay can be described thus: SPR Biacore T100, integrated RU of SR344 bound over ten cycles, 37 C. The protocol: The produced pH-dependent binding clones described above were analyzed using a Biacore T100™ surface plasmon resonance system (GE Healthcare) for their ability to bind to the antigen SR344 multiple times at pH 5.8 and pH 7.4. More specifically, the analysis was carried out as follows. All the measurements were carried out at 37° C. First, the sample antibodies described above were bound onto a recomb-protein A/G (Pierce)-immobilized sensor chip by amine-coupling, where the mobile phase buffer was 10 mM MES (pH 5.8), 150 mM NaCl, and 0.05% TWEEN® 20 (polyoxyethelene sorbitan monolaurate) (step 1). SR344 adjusted to a concentration of about 40 nM was injected as an analyte for 3 minutes at pH 7.4 and allowed to bind (the buffer for injected SR344 was 10 mM MES (pH 7.4), 150 mM NaCl, and 0.05% TWEEN® 20 (polyoxyethelene sorbitan monolaurate)) (step 2). Subsequently, the injection of SR344 was discontinued and a mobile phase of pH 5.8 was allowed to flow for about 70 seconds to expose the antibody/SR344 complex under acidic conditions (step 3). Ten sets of this binding (step 2)/acidity exposure (step 3) process were continuously repeated to observe the sensorgram in real-time, which is shown in FIG. 11. […] In the 10-set repetition of the binding (step 2) and acidic exposure (step 3), almost all H170/L82 and CLH5/L73 antibodies were able to bind to new antigens in each set. […]

Assay [2] addresses T1, recombinant soluble human IL-6 receptor …. Put plainly: SPR Biacore T100, antibody captured by anti-IgG gamma chain F(ab)2, SR344 analyte, pH 7.4, 37 C. How it is done:
Kinetic analyses of antigen-antibody reactions at pH 7.4 were carried out on the four types of antibodies, i.e., the humanized PM1 antibody (wild type: WT), and […], H3pI/L73-IgG1, Fv2-IgG1, and Fv4-IgG1 constructed in Examples 2 and 10, by using a Biacore T100™ surface plasmon resonance system (GE Healthcare) (buffer: 10 mM MES (pH 7.4), 150 mM NaCl, 0.05% TWEEN® 20 (polyoxyethelene sorbitan monolaurate)). Each antibody was bound on a sensor chip on which an anti-IgG γ chain specific F(ab)₂ (Pierce) was immobilized by amine coupling, and then, SR344 adjusted to a concentration of 9.8 to 40 nM was injected thereto as an analyte. The association to and dissociation from SR344 were observed on a real-time basis for the pH-dependent-binding clones. All the measurements were carried out at 37° C. Association rate constants kₐ (1/Ms) and dissociation rate constants kd (1/s) were calculated using Biacore T100™ Evaluation Software (GE Healthcare), and dissociation constants KD (M) were calculated on the basis of those values (Table 7).
The association to and dissociation from SR344 were observed on a real-time basis using the same method as Example 10 for the eleven types of antibodies, humanized PM1 antibody (wild type: WT) and H3pI/L73-IgG1, Fv1-M71, Fv1-M73, Fv2-IgG1, Fv3-M71, Fv3-M73, Fv4-IgG1, Fv4-IgG2, Fv4-M58, and Fv4-M73, constructed as described above. The association rate constants kₐ (1/Ms) and dissociation rate constants kd. (1/s) were calculated by analysis in the same manner, and the dissociation constants KD (M) were calculated on the basis of those values (Table 11).
On the technique in general: SPR reads the build-up and loss of mass on a sensor chip optically.

Assay [3] shares this target. The assay can be described thus: SPR Biacore T100, biotinylated SR344 on streptavidin chip (model of membrane-type IL-6 receptor), antibody as analyte, 37 C. The protocol:
(§1) Binding to the membrane-type IL-6 receptor was evaluated by evaluating binding to the IL-6 receptor immobilized on a sensor chip. SR344 was biotinylated in accordance with a method known among persons with ordinary skill in the art, and the biotinylated SR344 was immobilized on the sensor chip via streptavidin using the affinity between streptavidin and biotin. All the measurements were carried out at 37° C. The mobile phase buffer was 10 mM MES (pH 5.8), 150 mM NaCl and 0.05% TWEEN® 20 (polyoxyethelene sorbitan monolaurate).
(§2) The pH-dependently-binding clones were injected under the condition of pH 7.4 to allow them to bind to SR344, and then, the pH-dependent dissociation of each clone at the pH of the mobile phase, pH 5.8, was observed. The results are shown in FIG. 21 (results for Fv1-M71, Fv1-M73, Fv3-M71, and Fv3-M73 are shown in FIG. 21, while results for other clones are shown in FIGS. 17 and 19). Analyses were carried out in the same manner as in Example 10 and the pH dependencies of the dissociation rate constants of all of the eleven types of clones are shown in Table 12.

The target is the same in assay [4]. The assay can be described thus: SPR Biacore T100, biotinylated SR344 on streptavidin chip (model of membrane-type IL-6 receptor), antibody as analyte, bound at pH 7.4, dissociation at pH 5.8, 37 C. The protocol: as §1, §2
Assay [5] shares this target. Put plainly: SPR Biacore T100, biotinylated SR344 on streptavidin chip (model of membrane-type IL-6 receptor), antibody as analyte, bound at pH 7.4, dissociation at pH 7.4, 37 C. How it is done: as §1, §2

B1: H170/L82 (antibody, IgG1, V domains shown)
VH: QVQLQESGPGLVKPSETLSLTCAVSGHSISHHHAHSWVRQPPGEGLEWIGYISYSGITHYNPHLKGRVTISRDTSKNQFSLKLSSVTAADTAAYYCARVLARITAMDHWGEGTLVTVSS
VL: DIQMTQSPSSLSASVGDSVTITCQASQDISSHLNWYQQKPGKAPELLIYYGSHLHSGVPSRFSGSGSGTDFTFTISSLEAEDAATYYCGQGNRLPYTFGQGTKVEIE
notes: expressed and purified as IgG (IgG1); also called H170/L82-IgG1
On to B1, for which the “total amount of antigen bound over ten cycles relative to WT” value in assay [1] was ~4 fold.

B2: Fv4-IgG1 (antibody)
heavy: not shown
light: DIQMTQSPSSLSASVGDSVTITCQASTDISSHLNWYQQKPGKAPELLIYYGSHLLSGVPSRFSGSGSGTDFTFTISSLEAEDAATYYCGQGNRLPYTFGQGTKVEIERTVAAPSVFIFPPSDEQLKSGTASVVCLLNNFYPREAKVQWKVDNALQSGNSQESVTEQDSKDSTYSLSSTLTLSKADYEKHKVYACEVTHQGLSSPVTKSFNRGEC
notes: VH3-IgG1 / VL3-CK
For B2, in assay [2], the Kd was determined as 1.4 nM, the koff worked out at 0.001 s⁻¹ and the association rate constant (kon) turned out to be 720000 M⁻¹ s⁻¹. Besides, the “kd (pH 5.8)/kd (pH 7.4)” value in assay [3] came to 5.56. Further, the dissociation rate constant (koff) in assay [4] came out at 0.0026 s⁻¹. Also, the koff in assay [5] was determined as 0.00047 s⁻¹.

Usually Kd stands for the free concentration of one partner at which half of the binding sites on the other are occupied at equilibrium, for simple one-to-one binding. Usually koff stands for the rate constant with which the complex falls apart. Usually kon stands for the second-order rate constant of association.
